Earlier results on one substance are cited in paper PMC5250575.

This series concerns the target Kv1.3 (Homo sapiens) (UniProt P22001).
Chain of UniProt P22001 (P22001 whole entry): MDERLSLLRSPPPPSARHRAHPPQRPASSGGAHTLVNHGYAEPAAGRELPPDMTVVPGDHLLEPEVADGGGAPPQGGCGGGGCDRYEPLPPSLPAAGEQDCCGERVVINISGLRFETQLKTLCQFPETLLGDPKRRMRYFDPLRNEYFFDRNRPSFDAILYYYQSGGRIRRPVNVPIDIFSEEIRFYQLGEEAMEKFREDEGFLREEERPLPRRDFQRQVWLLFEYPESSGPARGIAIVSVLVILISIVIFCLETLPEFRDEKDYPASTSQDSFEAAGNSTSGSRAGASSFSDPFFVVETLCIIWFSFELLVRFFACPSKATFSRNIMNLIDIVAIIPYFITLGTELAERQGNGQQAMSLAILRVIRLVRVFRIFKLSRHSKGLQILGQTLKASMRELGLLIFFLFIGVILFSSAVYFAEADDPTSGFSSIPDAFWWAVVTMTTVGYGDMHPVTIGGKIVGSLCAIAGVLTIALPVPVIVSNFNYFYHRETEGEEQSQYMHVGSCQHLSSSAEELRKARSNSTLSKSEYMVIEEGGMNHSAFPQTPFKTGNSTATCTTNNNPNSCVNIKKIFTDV

Consider Margatoxin (from UniProt P40755), for which the Kd was 11.7 pM.
